Measurements taken from paper PMC8131098.

What was measured:
Assay in all cases: MST
Details in all cases: 50 nM RED-NHS labeled PdtaR, RNA up to 10 uM, autophosphorylation buffer (composition and pH not in material) with 0.025% Tween-20, 50 uM ATP …
[1] = target: T1, PdtaR (unphosphorylated) (Mycobacterium tuberculosis Erdman (ATCC 35801)) (UniProt P9WGM3)
T1 sequence: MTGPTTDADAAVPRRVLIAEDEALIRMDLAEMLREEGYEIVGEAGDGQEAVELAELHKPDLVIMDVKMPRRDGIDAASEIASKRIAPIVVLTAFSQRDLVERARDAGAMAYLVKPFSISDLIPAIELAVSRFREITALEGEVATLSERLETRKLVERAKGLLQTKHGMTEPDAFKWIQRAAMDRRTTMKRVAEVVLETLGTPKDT

[2] = system: PdtaR (unphosphorylated) (Mycobacterium tuberculosis Erdman (ATCC 35801))
[3] = system: PdtaR~P (phosphorylated by PdtaS) (Mycobacterium tuberculosis Erdman (ATCC 35801))

| Substance | Kd [1] | Kd [2] | Kd [3] |
| --- | --- | --- | --- |
| GGCAAAAAAUUCGUGCACCAACCCCCCUCCGAGCGCUGCUAAGCUCAAUGUGCAGUGCAAAGGUGCAGAUAAUGAUGGCGCACCGGAACGGCGAGCGUAAGGAAA [rv3864 RNA] | 2590 nM | – | – |
| rv3864 RNA | – | 2590 nM | 2120 nM |
| PPE1-5' RNA | – | 1280 nM | 410 nM |
